Entries after “also recorded” stand apart in the source; their conditions may differ.
Assays:
[1] = test system: ABA-inducible wheat Em promoter; experiment: Em-GUS reporter transactivation in transiently transformed rice protoplasts; format: cell-based, Oryza sativa; details: for Transactivation of Em-GUS expression by overexpressed effector: effector overexpressed alone, average of four replicate transformations
Experimental: Embryonic rice (Oryza sativa) callus cultures (Radon 6 from the International Rice Research Institute, Los Bafios, Phillipines) were obtained. Embryonic rice callus cultures were grown as suspensions in liquid culture as well as on phytagel plates containing MS medium supplemented with 2.0 mg/L 2,4-D. Cultures were propagated and digested for making protoplasts as previously described except that 10 mM HEPES (Sigma, St. Louis, Mo., USA), pH 5.6, was substituted for phosphate in the Krens'F medium, and 2% (weight/volume; w/v) cellulase YC, 0.35% (w/v) macerozyme, and 0.1% (w/v) pectolyase Y23 were used for overnight digestion (Karlan Research Products, Santa Rosa, CA, USA). Protoplasts were transformed with various mixtures of DNA reporter and effector constructs using polyethylene glycol precipitation. Transformed protoplasts were incubated with or without 100 μM ABA for 16 h in the dark in Krens solution before quantifying β-glucuronidase (GUS) and luciferase (LUC) reporter enzyme activities as previously described. ABA was dissolved and stored in absolute ethanol at −20° C. as a 0.1 M stock solution. Prior to use, required dilutions of ABA were made in Krens solution, and control samples received the same volume of solvent as in ABA treatments.
(§1) Plasmid pBM207 contains the wheat (Triticum aestivum) Early Methionine-labeled (Em) promoter driving the expression of GUS, encoded by uida from Escherichia coli. Plasmid pDH359 contains ABI5 cDNA driven by Ubiquitin promoter. Plasmid pCR349.13S contains the 35S promoter driving the VP1 sense cDNA. Plasmid pDirect2.6 contains the Ubi promoter in a reverse orientation and was used as control construct to balance the total amount of input plasmid DNA between various treatments. Plasmid pAHC 18 contains the Ubi promoter driving firefly (Photinus pyralis) LUC cDNA and was included in transformations to provide an internal reference for non-ABA-inducible transient transcription in reporter enzyme assays. ABF1-ABF4, AREB3, and DPBF4 were amplified by PCR using gene-specific primers from an Arabidopsis cDNA library (Minet et al. Plant J. 2:417 (1992)) and were cloned into plasmid pDH349 (Gampala et al. J. Biol. Chem. 277: 1689 (2002)) containing the maize Ubiquitin promoter and nopaline synthase 3′ termination signals.
Simultaneously, it has been shown that ABF2, ABF3 and ABF4 overexpression in transgenic Arabidopsis results in ABA hypersensitivity and other ABA-associated phenotypes such as altered ABA-inducible gene expression and glucose signaling, reduced transpiration, and enhanced drought tolerance. The functional roles of the ABI5-like family members ABF1-ABF4 in regulation of ABA-inducible gene expression in rice protoplasts were tested and the results are shown in FIG. 1. […] Protoplasts were transformed with Em-GUS and a “dummy” effector construct (pD2.6 containing only the Ubiquitin promoter used to drive effector expression) or co-transformed with a Ubi-ABF construct and treated with or without 100 μM ABA. The values shown in FIG. 1A are the average (±S.E.M.) of four replicate transformations.
Rice protoplasts were transformed with either Em-GUS alone or in pairwise combinations of Ubi-ABF3, Ubi-ABI5, or 35S-VP1. The values in FIG. 1B are the average (±S.E.M.) of four replicate transformations. ABF3 is a related member of the ABI5-family of bZIP transcription factors.

[2] = test system: ABA-inducible wheat Em promoter; experiment: Em-GUS reporter transactivation in transiently transformed maize mesophyll protoplasts; format: cell-based; details: for Transactivation of Em-GUS expression by overexpressed effector: maize mesophyll protoplasts, effector overexpressed alone
Experimental: Plant Materials. Maize mesophyll protoplasts were isolated from 20-hr illuminated leaves of 10 day old maize seedlings that had been kept in the dark at 25° C. The middle part of the second leaves (about 6 cm in length) was cut into 0.5 mm strips with a razor blade and digested in an enzyme solution containing 1% (w/v) cellulose RS, 0.1% (w/v) macerozyme R10 (Yakult Honsha, Nishinomiya, Japan), 0.6 M mannitol, 10 mM MES (pH 5.7), 1 mM CaCl2, 1 mM MgCl2, 10 mM β-mercaptoethanol, and 0.1% BSA (w/v) for 3 hr at room temperature. Protoplasts were released by shaking on a rotary shaker at 80 rpm for 10 min and were filtered through a 70 μm nylon filter. Protoplasts were collected by centrifugation at 100 g for 2 min, washed in cold 0.6 M mannitol solution, centrifuged, and resuspended at 2×10^6/mL in cold 0.6 M mannitol. Electroporation conditions were 400 V/cm, 200 μF, 10 msec, and two pulses with a Biorad GenePulser apparatus. Each sample contained 5×10^4 protoplasts and about 50 μg DNA in 0.3 mL of 0.6 M mannitol and 20 mM KCl.
as §1
The values in FIG. 2 are the average (±S.E.M.) of four replicate transformations.
To test the involvement of ABI3-Like B3 domain transcription factors in ABA signaling, ABA-inducible reporter gene transactivation by the B3 domain-containing RAV2 was assayed in maize mesophyll protoplasts transiently co-transformed with a full length cDNA under transcriptional control of the Ubiquitin promoter. Activation of Em-GUS reporter gene expression by RAV2, relative to non-ABA inducible Ubi-LUC reference reporter as internal control, and functional interactions of RAV2 with VP1, ABI5, and the ABI5-Like ABF3 were compared in protoplasts treated with or without 100 uM ABA (see FIG. 3).

Row | Molecule | Synergy with exogenous ABA on Em-GUS expression ([1]; 100 μM ABA, 16 h) | Synergistic activity with VP1 relative to that of ABI5 with VP1 ([1]; co-expressed with VP1) | Transactivation of Em-GUS expression by overexpressed effector [1] | Synergy with co-expressed VP1 on Em-GUS expression ([1]; pairwise co-transformation with 35S-VP1) | Synergy with co-expressed ABI5 on Em-GUS expression ([1]; pairwise co-transformation with Ubi-ABI5) | Synergy with co-transformed VP1 on Em-GUS expression [2] | Synergy with exogenous ABA on Em-GUS expression [2] | Transactivation of Em-GUS expression by overexpressed effector [2]
1 | ABF3: Arabidopsis ABI5-like ABA-Response Element-Binding Factor, bZIP, At4g34000 (protein) MGSRLNFKSFVDGVSEQQPTVGTSLPLTRQNSVFSLTFDEFQNSWGGGIGKDFGSMNMDELLKNIWTAEESHSMMGNNTSYTNISNGNSGNTVINGGGNNIGGLAVGVGGESGGFFTGGSLQRQGSLTLPRTISQKRVDDVWKELMKEDDIGNGVVNGGTSGIPQRQQTLGEMTLEEFLVRAGVVREEPQPVESVTNFNGGFYGFGSNGGLGTASNGFVANQPQDLSGNGVAVRQDLLTAQTQPLQMQQPQMVQQPQMVQQPQQLIQTQERPFPKQTTIAFSNTVDVVNRSQPATQCQEVKPSILGIHNHPMNNNLLQAVDFKTGVTVAAVSPGSQMSPDLTPKSALDASLSPVPYMFGRVRKTGAVLEKVIERRQKRMIKNRESAARSRARKQAYTMELEAEIAQLKELNEELQKKQVEIMEKQKNQLLEPLRQPWGMGCKRQCLRRTLTGPW | strong; also recorded: acted in synergy with ABA; also recorded: interacts synergistically | about twice the synergistic activity seen between ABI5 and VP1 | sufficient for transactivation of the Em promoter; also recorded: transactivated the Em promoter; also recorded: sufficient to transactivate ABA-inducible Em-GUS expression | synergized with each other and with ABA; also recorded: interacts synergistically | did not result in synergy | can synergize with co-transformed VP1 | synergize with exogenous ABA | sufficient for transactivation of the Em promoter; also recorded: sufficient for specific Em-GUS transactivation; also recorded: sufficient to transactivate Em-GUS expression
2 | ABF4: Arabidopsis ABI5-like ABA-Response Element-Binding Factor, bZIP, At3g19290 (protein, listed as Arabidopsis thaliana) MGTHINFNNLGGGGHPGGEGSSNQMKPTGSVMPLARQSSVYSLTFDELQNTLGGPGKDFGSMNMDELLKSIWTAEEAQAMAMTSAPAATAVAQPGAGIPPPGGNLQRQGSLTLPRTISQKTVDEVWKCLITKDGNMEGSSGGGGESNVPPGRQQTLGEMTLEEFLFRAGVVREDNCVQQMGQVNGNNNNGFYGNSTAAGGLGFGFGQPNQNSITFNGTNDSMILNQPPGLGLKMGGTMQQQQQQQQLLQQQQQQMQQLNQPHPQQRLPQTIFPKQANVAFSAPVNITNKGFAGAANNSINNNNGLASYGGTGVTVAATSPGTSSAENNSLSPVPYVLNRGRRSNTGLEKVIERRQRRMIKNRESAARSRARKQAYTLELEAEIEKLKKTNQELQKKQAEMVEMQKNELKETSKRPWGSKRQCLRRTLTGPW | – | – | sufficient for transactivation of the Em promoter; also recorded: sufficient to transactivate ABA-inducible Em-GUS expression | – | – | no functional interactions with VP1 and not | synergize with exogenous ABA | sufficient for transactivation of the Em promoter; also recorded: sufficient to transactivate Em-GUS expression
3 | ABF2: Arabidopsis ABI5-like ABA-Response Element-Binding Factor, bZIP, At1g45249 (protein, listed as Arabidopsis thaliana) MDGSMNLGNEPPGDGGGGGGLTRQGSIYSLTFDEFQSSVGKDFGSMNMDELLKNIWSAEETQAMASGVVPVLGGGQEGLQLQRQGSLTLPRTLSQKTVDQVWKDLSKVGSSGVGGSNLSQVAQAQSQSQSQRQQTLGEVTLEEFLVRAGVVREEAQVAARAQIAENNKGGYFGNDANTGFSVEFQQPSPRVVAAGVMGNLGAETANSLQVQGSSLPLNVNGARTTYQQSQQQQPIMPKQPGFGYGTQMGQLNSPGIRGGGLVGLGDQSLTNNVGFVQGASAAIPGALGVGAVSPVTPLSSEGIGKSNGDSSSLSPSPYMFNGGVRGRKSGTVEKVVERRQRRMIKNRESAARSRARKQAYTVELEAEVAKLKEENDELQRKQARIMEMQKNQETEMRNLLQGGPKKKLRRTESGPW | – | – | no effect on Em-GUS expression | – | – | not | lower levels of ABA synergy compared to ABF3 and ABF4 | –

— US20090083877A1, “Transcription Factors, DNA and Methods for Introduction of Value-Added Seed Traits and Stress Tolerance” (priority 2002, published 2009)
